The results in this text go back to patent US11623951B2, “Antibodies to R-spondin 3” (National Health Research Institutes, priority 2017, dated 2023).

“Also recorded” adds a separate entry of the source.

For data set [1], the target named is T1, recombinant human RSPO3 protein (hRSPO3) (Homo sapiens, UniProt Q9BXY4).
T1 sequence (Q9BXY4 22-272): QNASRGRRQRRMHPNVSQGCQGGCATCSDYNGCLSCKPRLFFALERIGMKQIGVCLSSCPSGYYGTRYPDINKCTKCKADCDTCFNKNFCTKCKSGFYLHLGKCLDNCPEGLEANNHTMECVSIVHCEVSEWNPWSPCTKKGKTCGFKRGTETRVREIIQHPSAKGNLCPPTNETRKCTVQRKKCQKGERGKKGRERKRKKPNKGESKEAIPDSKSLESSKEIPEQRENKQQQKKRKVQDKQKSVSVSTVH
Briefly: Biacore T200 binding kinetics to immobilized hRSPO3. Conditions: for equilibrium dissociation constants, KD (in words): Biacore T200; for koff (1/s, *10^−5) / kon (1/Ms, *10^6): Biacore T200, 25° C., 1:1 model. The protocol: FIG. 7 is a graph showing use of Biacore to measure the binding kinetics of α-RSPO3 Abs-antigen interaction. The binding sensorgrams were generated using a Biacore T200 and then fitted to a simple 1:1 interaction model. A series of concentrations of hB1 (0.39-6.25 nM) were injected in a single-cycle with no regenerating of the surface between injections. The association was monitored for 2 min, and the final dissociation time was 15 min hRSPO3 was immobilized on a CM5 chip at 27.5 RU.
The binding kinetics between α-RSPO3 Abs and recombinant human RSPO3 protein (hRSPO3) were performed at 25° C. using a Biacore T200 biosensor equipped with a CM5 Series S Sensor Chip (GE Healthcare). Running buffer was HBS-EP Buffer (0.01 M HEPES pH 7.4, 0.15 M NaCl, 3 mM EDTA, 0.005% v/v Surfactant P20) with final pH 7.4. hRSPO3 protein was immobilized on CM5 sensor chips with coating densities of about 27.5 response units (RU). The α-RSPO3 Abs were serially diluted 2-fold from 6.25 nM to 0.39 nM in HBS-EP and were injected over the chip surface for 120 s each at a flow rate of 30 μL/min, followed by a final 900 s dissociation phase. Obtained sensorgrams were corrected by double subtracting the signal obtained on a reference surface and the signal of the running buffer. Sensograms were fit globally with BIAcore T200 evaluation software 3.0 using 1:1 binding model to yield affinity constants (KD values) for α-RSPO3 Abs. Replicate measurements were made in separate experiments, using independently prepared α-RSPO3 Abs dilution series and huRSPO3-coated chip surfaces.
On the technique in general: SPR reads the build-up and loss of mass on a sensor chip optically.

In the next data set the target is T2, RSPO3 / RNF43 binding (Homo sapiens, UniProt Q9BXY4).
T2 construct: purchased Peprotech (RSPO3); Sino Biological (RNF43-His) 16108-H08H (RNF43)
T2 sequence (Q9BXY4 22-272): T1 sequence (Q9BXY4 22-272)
Briefly: Competitive ELISA of RSPO3 binding to RNF43. Conditions: RNF43-His 200 ng/ml, antibody 20 μg/ml. The source says: FIG. 10 is a set of graphs showing competitive binding of RSPO3 to LGR5 or RNF43 by different α-RSPO3 antibodies. To exam whether different α-RSPO3 antibodies might compete with the binding of RSPO3 to LGR5 or RNF43, recombinant hRSPO3 was coated on a plate. (A) Recombinant LGR5 (22-560)-Fc was conjugated with biotin to facilitate detection. Biotinylated LGR5 was then respectively mixed with various concentrations of either α-RSPO3 antibodies or isotype control Ab and applied to RSPO3-coated wells. Streptavidin-HRP was then added to detect bound biotinylated LGR5; and (B) Mixtures of recombinant His-tagged RNF43 and different α-RSPO3 antibodies, respectively, were applied to each RSPO3-coated wells. Mouse anti-His tag antibody-HRP was then added for detection of bound RNF43. […] The colorimetric reaction was then stopped by 2N HCL and the optical density at 450 nm of each well was determined immediately.
To exam whether different α-RSPO3 antibodies might compete with the binding of RSPO3 to RNF43, mixtures of recombinant Hig-tagged RNF43 (RNF43-His16108-H08H, Sino Biological) at 200 ng/ml and 20 μg/ml of different α-RSPO3 antibodies, respectively, were applied to each well. […] The colorimetric reaction was then stopped by 2N HCL and the optical density at 450 nm of each well were determined immediately.
On the technique in general: ELISA stands for enzyme-linked immunosorbent assay.

Data set [2] has as its system NCI-H2030 lung cancer xenograft. In words: RSPO^high NCI-H2030 lung cancer CDX model. Type of data set: in vivo, nude mice. The settings on record: for terminal average tumor volume: 25 mg/kg i.v. once a week, Day 29; for body weight loss: mouse, in vivo. The protocol: FIG. 14 is a graph showing the efficacy of hB1 in a RSPO^high NCI-H2030 Lung Cancer CDX model. Mice were treated with hB1 or 131R010 at 25 mg/kg, or control (vehicle) once a week for 4 weeks. On Day 28 of treatment, 7 mice from each of the vehicle, 131R010 and hB1 groups were sacrificed for tumor collection at 24 hours after the […] dose. Data are expressed as mean±SEM. On Day 51 of treatment, 7 mice from each of the Carboplatin, hB1, 131R010 and carboplatin in combination groups were sacrificed for tumor collection. Data are expressed as mean±SEM.
To evaluate the preclinical in vivo efficacy, RSPO^high NCI-H2030 lung cancer cell-derived xenograft (CDX) model was used in this study. Female nude mice were inoculated subcutaneously at the right flank with one fragment of NCI-H2030 (5*10^6) for tumor development. When the average tumor size reached about 250 mm^3, tumor-bearing mice were randomly allocated into groups and 25 mg/kg of the test articles, 50 mg/kg of carboplatin or vehicle (isotype IgG) were injected intravenously (i.v.) every week for 4 weeks. Tumor volume was measured by caliper every three days (one day dosing and 2 days off) and using the formula: TV=0.5×a×b^2, where a and b is the long and short diameters of the tumor, respectively. Animals were sacrificed due to tumor size reaching humane endpoints, and the last value of the tumor volume was carried forward until the end of the study.
Statistical analyses were including the mean and standard error, are provided for the tumor volume. Since the two treatment regimens were independent, for comparison between each treatment against control, an independent sample was performed. All data was analyzed using 2way ANOVA multiple comparisons by Prism. P<0.05 was considered to be statistically significant.

B1: hB1: humanized α-RSPO3 antibody derived from murine clone B1; VH SEQ ID NO: 14, VL SEQ ID NO: 16 (antibody, V domains shown)
VH: QIQLQESGPGLVKPSESLSLTCSVTGYSITSGYYWNWIRQFPGNGLEWMGYISYDGTNNYNPSLKDRISITRDTSKNQFFLKLNSVTAADTATYYCSVLLIQYFNIWGKGTTVTVSS
VL: DIQMTQSPSSLSASVGERVTITCRTSESVNNFLAWFHQKPGKSPKLLVYHAKTLADGVSSRFSGSGSGTQYSLKINSLQPEDFGNYYCQHFWSIPWTFGGGTKLEIKR
modifications: Heavy chain variable region; Light chain variable region
On to B1, for which, in data set [1], the “equilibrium dissociation constants, KD (in words)” value is on record as “picomolar (pM) levels”; the “koff (1/s, *10^−5)” value was 3.4 ± 0.1 1/s, *10^−5; the “kon (1/Ms, *10^6)” value is given as 1.7 ± 0.8 1/Ms, *10^6. The “competition with RNF43 for binding to RSPO3” value with RSPO3 / RNF43 binding is “did not interfere with the binding between RNF43 and RSPO3”. In data set [2], the “terminal average tumor volume” value amounted to 1124±471.8 mm^3 and the body weight loss result is “no severe body weight loss”. Besides, the “antitumor activity (in words)” value in data set [2] (single agent or with carboplatin 50 mg/kg) is “significant antitumor activity; also recorded: better anti-cancer efficacy than rosmantuzumab”.

B2: rosmantuzumab (antibody, chains of the INN, looked up, V domains shown)
VH: QVQLVQSGAEVKKPGASVKVSCKASGYTFTDYSIHWVRQAPGQGLEWIGYIYPSNGDSGYNQKFKNRVTMTRDTSTSTAYMELSRLRSEDTAVYYCATYFANNFDYWGQGTTLTVSS
VL: DIQMTQSPSSLSASVGDRVTITCKASQSVDYDGDSYMNWYQQKPGKAPKLLIYAASNLESGVPSRFSGSGSGTDFTLTISPVQAEDFATYYCQQSNEDPLTFGAGTKLELK
B2: in data set [1], the “equilibrium dissociation constants, KD (in words)” value is “picomolar (pM) levels”; the “koff (1/s, *10^−5)” value was 18.1 ± 0.1 1/s, *10^−5; the “kon (1/Ms, *10^6)” value was 9.4 ± 1.8 1/Ms, *10^6. For the same molecule, the “competition with RNF43 for binding to RSPO3” value with RSPO3 / RNF43 binding is “did not interfere with the binding between RNF43 and RSPO3”. In data set [2], the “terminal average tumor volume” value stood at 1327.4±194.3 mm^3 and the body weight loss result is given as “no severe body weight loss”.
